Biological target: T1, CTLA4 Fc bIgG3aWinSAS (canine; bovine, UniProt Q9XSI1 36-161, limits assumed)
T1 construct: No linker
T1 sequence: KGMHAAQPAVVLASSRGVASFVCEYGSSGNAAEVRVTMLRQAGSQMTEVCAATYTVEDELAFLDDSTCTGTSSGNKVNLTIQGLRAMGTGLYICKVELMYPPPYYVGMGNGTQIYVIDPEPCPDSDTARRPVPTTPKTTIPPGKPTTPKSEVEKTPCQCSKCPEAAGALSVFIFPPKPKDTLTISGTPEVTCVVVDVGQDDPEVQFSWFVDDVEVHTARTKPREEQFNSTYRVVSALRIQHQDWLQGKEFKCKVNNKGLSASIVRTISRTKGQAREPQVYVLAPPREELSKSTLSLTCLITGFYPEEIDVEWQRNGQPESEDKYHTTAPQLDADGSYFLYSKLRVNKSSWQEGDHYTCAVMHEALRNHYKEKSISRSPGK
Assay: SPR Biacore, biotinylated receptor on SA sensor, pH 7.4, 15 C

binding result: no binding
B1: recombinant bovine FcgR2 (receptor)
chain: KPDLPKAVVTIQPAWINVLREDHVTLTCQGTSFSAGNLTTWFHNGSSIHTQKQPSYSFRAGSNDSGSYRCQREQTSLSDPVHLDVISDWLLLQTPSLVFQEGEPIMLRCHSWRNQPLNKITFYQDRKSKIFSYQRTNFSIPRANLSHSGQYHCTAFIGKMLHSSQPVNITVQESSSSGPSSMTHHHHHHAGLNDIFEAQKIEWHE
modifications: biotin on the BAP tag (BirA)
notes: also called bFcgR2; bFcgRII

Source: patent US20230416410A1 (ZOETIS SERVICES, published 2023)
